Laboratory results: article PMC9376891

Target: Rae1(31-368)-Nup98(157-213) heterodimer (human), P78406
Test: ITC

DEMDTHDPNQLRY (modifications not checked) [VSV M NTE peptide]
Kd: 117 µM
